Assay: yeast display, Sf9 membrane polyspecificity reagent, FACS + sequencing; frameworks hold sequencing errors
Summary of the method: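 A synthetic nanobody library was expressed on Saccharomyces cerevisiae BJ5465 by galactose induction for 36–48 hours. The library was stained for 1 hour at 4 °C with 10% biotinylated, detergent-solubilized Sf9 membrane reagent and enriched with streptavidin microbeads before FACS. Low and high (top ~1%) gates were set on anti-HA fluorescence for expression and streptavidin fluorescence for reagent binding, and each polyreactivity label reflects the gate of origin.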

Row | Sequence | polyreactivity (PSR sort gate)
1 | QVQLVESGGGLVQAGGSLSLSCAASGSSFGGYTMGWYRQAPGKERELVAAISRRGGNTYYADSVKGRFTISRDNAKNTVYLQMNSLNPEETAVYYCAVRWPSARIPVKLDYWGQGTQVTVSS | high polyreactivity
2 | QVQLVESGGGLVQAGGSLSLSCAASGSTFAYYAMGWSRQAPGKERELVAGITWTGGSTYYADSVKGRFTISRDNAKNTVYLQMNSLKPEDTAVYYCAVTYPYGYEYDHWGQGSQVTVSS | low polyreactivity
3 | QVQLVESGGGLVQAGGSLSLSCAASGSTFAYYAMGWYRQAPGKERELVAGITWTGGSTYYADSVKGRFTISRDNAKHTDYLQMNSLKPEDTAVYYCAVTYPYGYEYDHWGQGSQVTVSS | low polyreactivity
4 | QVQLVESGGGLVQAGGSLSLSCAASGSTFYENAMGWYRQAPGKERELVAAITWSGGRTYYADSVKGRFTISRDNAKNTVYLQMNSLKPEDTAVYYCNARARSRKFYYWGQGTQVTVSS | high polyreactivity
5 | QVQLVESGGGLVQAGGSLSLSCAASGSTFYRYAKGWYRQAPGKERELVAAISTRGGSTYYADSVKGRFTISRDNAKNTVYLQMNSLKPEDTAVYYCAAKSGSPDDYDYWGHGTQVTVSS | high polyreactivity
6 | QVQLVESGGGLVQAGGSLSLSCAASGSTLRYYDMGWYRQAPGKERELVAAISRGGSTYYADSVKGRFTISRDNAKNTVYLQMNSLKPEDTAVYYCNKEYPSSYEYDYWGQGTQVTVSS | low polyreactivity
7 | QVQLVESGGGLVQAGGSLSLSCAASGSTYFYAMGWYRQAPGKERELVAAISFSDGITYYADSVKGRFTISRDNAKNTVYLQMNSLKPEDTAVYYCAADYISLREEDYWGQGTQVTVSS | high polyreactivity
8 | QVQLVESGGGLVQAGGSLSLSCAATGSIFGGNAMGWKRQAPGKERELVATITDRGSSTYYADSVKGRFTISRDNAKNTVYLRMHSLNPDDTAVYYCANAFPDVPEHDYGGQGTQVTVSS | low polyreactivity
9 | QVQLVESGGGLVQAGGSLSLSCAATGTNFCHNAMGWYRPAPWKERELGAGITSVGSTYFAYSVKGRFTISRDNAKNTVYLQMNSLKPEDTAVYYSAKGYDFRRSYEYWGQGTQVNVSS | low polyreactivity
10 | QVQLVESGGGLVQAGGSLSLSCASSGSTLTYYAMGWYRQEPGKEREFVAAIRWSSGNTYYADSVKGRFTISRDNAKNTVYLQMNSLKPEDTAVYYCAKERRYTGRRSYEYDYWGQGTQVTVSS | low polyreactivity
11 | QVQLVESGGGLVQAGGSLSLSFAASGRTFARYAMGWYRQAPGKEREFVAGINWSGGGTYYADSVKGRFTISRDNAKNTVYLQMNSLKTEDTAVYYCAAVPTNRYGYWGQGTQVTVSS | high polyreactivity
12 | QVQLVESGGGLVQAGGSLTLSCAASGSTFDYNVMGWYRQAPGKERELVAAISNAGTTNYADSVKGRFTISRDNAKNTVYLLMNSLKPEDTAVYYCAADLGYYAAVTKYAEYDYWGQGTQVTVSS | low polyreactivity
13 | QVQLVESGGGLVQAGGSPRLSCAASGRIFGAYAMGWYRQAPGQERELVAGNRSVGSTNYADSVKGRFTISRDNAKNTVYFQMNSLKPEDTAVYYCAARLWHLSYAGQGGDYWGQGTQVTVSS | low polyreactivity
14 | QVQLVESGGGLVQAGGSRRISCAASGITFKWYAMGWYRQAPGKERELVAAISWSTGSTYYADSVKGRFTISRDNAKNTVYLQMNSLKPEDTAVSDCAADLQLPNLGDSYDYWGQGTQVTVSS | high polyreactivity
15 | QVQLVESGGGLVQAGGSRRLICAASGRIYYYMGWYRQEPGQERELVAASTSSGVSTYYADSVKGRFTISRDNAKNTVDLQMNSLKPEDTAVYYCAAERVYIFWFTHEIFKYWGQGTQVTVSS | high polyreactivity
16 | QVQLVESGGGLVQAGGSRRLRCAASGRIFKNYAMGWYRQAPGKERELVAAMTWSVGSTYYADSVKGRFTISRDNAKKTVYLQMNSLKPEDTAVNYCAARRSGTYRYRYEYWGQGSQVTVSS | low polyreactivity
17 | QVQLVESGGGLVQAGGSRRLSCAASGFTFYWYAMGWYRQAPGKERELVAAITRGGRTYYADSVKGRFTISRDNAKNTVYLQMNSLKPEDTAVYYCNAVEFTIAWCYTMDYWGQGIQVTVSS | high polyreactivity
18 | QVQLVESGGGLVQAGGSRRLSCAASGGTFYYYAMGWYRQAPGKERELVAAIRGSGGSTYYADSVKGRFPISRDNAKNTVYLQMNSLKPVDTAVYYCATRGGYPKGYGYLAFNYWGQGTQVTVSS | high polyreactivity
19 | QVQLVESGGGLVQAGGSRRLSCAASGIIFAYYAMGWYRQAPGKERELVASISSTGGSTYYADSVKGRFTISRDNAKNTVYLQMNSLKPEDTAVYYCAVDGLPPKDALHLYYYWGQVTQVTVSS | low polyreactivity
20 | QVQLVESGGGLVQAGGSRRLSCAASGLIFDKAMGWYRQAPGKQREFVAAITYSTGSTYYADSVKGRFTISRDNAKNTVYLQMNSLKPEDTAVYYCAKDGSGHGTERDYWGQGTQVTVSS | low polyreactivity
21 | QVQLVESGGGLVQAGGSRRLSCAASGRIICVYAMGWYRQAPGNERDLVAAITIGGSTYYADSVKGRFTISRDNAMNTFYLQMNSLKPEDTAVYYCNRRYNWYLHHYDYWGQGTQVTVSS | high polyreactivity
22 | QVQLVESGGGLVQAGGSRRLSCAASGRSFYGNAMGWYRQAPGTERECVAGISWRGGRTYYADSVKGRFTISRDNANNTVYLQMNSLKPEETAVYYCAASAGYRGRSGYEYWGQGTQVTVSS | high polyreactivity
23 | QVQLVESGGGLVQAGGSRRLSCAASGRTFYYAMGWYRQAPGKETQLVATITSGGGSTYYADSVKGRFSISRDNAKNTVYLQMNSLKPEDTAVYYCAADYKSSPPLPEYDYWGQGTQVTVSS | high polyreactivity
24 | QVQLVESGGGLVQAGGSRRLSCAASGSNFRNNAIGWYRQAPGKERELVAVISRRSGNTYYADSVKGRFTISRDNGKKTVYLPMHSLKPEDTAVYYCASDYCKSSIRGDYWGQGTQVTVSS | low polyreactivity
25 | QVQLVESGGGLVQAGGSRRLSCAASGSTFRINAMGWYRQAPGKERELVADINSGGNTTYADSVKGRFTISRDNAKNTVYLQMNSLKPEDTAVYYCAADPVFDLWEFLLDYGYDYWGQGTQVTVSS | low polyreactivity
26 | QVQLVESGGGLVQAGGSRRLSCAASGSTFYGYAMGWYRQAPGKEREFVAAITTSGGSTYYADSVKGRFTISRDNAKNTVYLQMNSLKPEDTAVYYCARDLYTEYRWGRLTYDYWGQGTQVTVSS | low polyreactivity
27 | QVQLVESGGGLVQAGGSRRLSWAASGSTFPRNAMGWYRQAPGKERELVAAISSGGSTYYADSVKWRFTISRDNAKNTVYLQMNSLKPEDTAVYYCAARLYWPIIVVDLYGYDYWGEGTQVTVSS | low polyreactivity
28 | QVQLVESGGGLVQAGGSRRLTCAASGFTFEYYAMGWYRQAPGTERELVAAISYSGSSTYYADSVKGRFTISRDNAKNTVYLQMNSLKPEDTAVYYCAARAVSRRFDYWGQGTQVTVSS | high polyreactivity
29 | QVQLVESGGGLVQAGGSRSLSCAASGRIFTVYAMGWYRQAPGKERELVAAISGRGGRTTYADSVKGRFTISRDNAKNTVFLQMNSLKPEDTAVYYCAAAYLRYVSTQYHYDYWGEGTQVTVSS | low polyreactivity
30 | QVQLVESGGGLVQAGGSVRLICAASGSIFYTYAMGWYRQAPGKERELVAAISKRGGSTYDADSVKGRFTISRDNAKNTVYLQMNSLKPEDTAVYYCAADTQHVYGSNFYYWGQGTQVTVSS | high polyreactivity

Reference: the nanobody polyreactivity screen of Harvey et al. (2022)
